Experiment [1] addresses [^32 P]reduced carboxyamidomethylated and maleylated-lysozyme (Gallus gallus (Chicken)) (UniProt P00698).
Experiment [2] deals with reduced carboxyamidomethylated and maleylated-lysozyme (not phosphorylated) (Gallus gallus (Chicken)) (UniProt P00698).
Experiment [3] concerns the target T1, D61A activated mutant of SHP-2 (human).
T1 sequence: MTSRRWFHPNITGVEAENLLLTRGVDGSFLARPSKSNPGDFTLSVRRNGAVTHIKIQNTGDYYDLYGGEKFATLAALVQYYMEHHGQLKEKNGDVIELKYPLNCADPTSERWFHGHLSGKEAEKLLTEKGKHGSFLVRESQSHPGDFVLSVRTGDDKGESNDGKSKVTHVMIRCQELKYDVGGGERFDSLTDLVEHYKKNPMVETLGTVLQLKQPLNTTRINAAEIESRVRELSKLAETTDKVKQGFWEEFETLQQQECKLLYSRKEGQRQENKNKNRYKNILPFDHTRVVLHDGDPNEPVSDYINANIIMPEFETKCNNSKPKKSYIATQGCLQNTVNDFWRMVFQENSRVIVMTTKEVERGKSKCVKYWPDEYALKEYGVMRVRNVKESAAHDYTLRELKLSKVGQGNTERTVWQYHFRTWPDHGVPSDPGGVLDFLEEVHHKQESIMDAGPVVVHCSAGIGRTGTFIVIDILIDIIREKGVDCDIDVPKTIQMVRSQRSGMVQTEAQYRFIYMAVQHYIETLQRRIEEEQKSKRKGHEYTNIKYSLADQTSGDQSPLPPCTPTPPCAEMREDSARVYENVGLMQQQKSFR

Where no end group is shown, it is not given here. [ ]: non-standard residue; d: D form. pY = N[C@@H](Cc1ccc(OP(=O)(O)O)cc1)C(=O)O

Our source for the phosphatase activity ([32P] phosphate released from [^32 P]RCM-lysozyme) (pmol/min-pmol), phosphorylation of RCM-lysozyme with [γ-^32 P] ATP and activation of phosphatase activity on [^32 P]RCM-lysozyme by the phosphotyrosine peptide (fold higher than wildtype SHP-2) values is patent US6156551.

Consider E76A activated mutant of SHP-2 (enzyme), for which the phosphatase activity ([32P] phosphate released from [^32 P]RCM-lysozyme) (pmol/min-pmol) in experiment [1] is 100. Take “recombinant full length Src kinase (enzyme)”: the phosphorylation of RCM-lysozyme with [γ-^32 P] ATP in experiment [2] turned out to be 2000 cpm/pmol.

B1: SHPS-1 phosphotyrosine peptide DIT[pY]…[pY]ASIQTS-NH2 (peptide)
peptide: DIT[pY]ADLNLPKGKKPAPQAAEPNNHTE[pY]ASIQTS-NH2
modifications: N-terminus assumed
SMILES: CC[C@H](C)[C@H](NC(=O)[C@H](CO)NC(=O)[C@H](C)NC(=O)[C@H](Cc1ccc(OP(=O)(O)O)cc1)NC(=O)[C@H](CCC(=O)O)NC(=O)[C@@H](NC(=O)[C@H](Cc1c[nH]cn1)NC(=O)[C@H](CC(N)=O)NC(=O)[C@H](CC(N)=O)NC(=O)[C@@H]1CCCN1C(=O)[C@H](CCC(=O)O)NC(=O)[C@H](C)NC(=O)[C@H](C)NC(=O)[C@H](CCC(N)=O)NC(=O)[C@@H]1CCCN1C(=O)[C@H](C)NC(=O)[C@@H]1CCCN1C(=O)[C@H](CCCCN)NC(=O)[C@H](CCCCN)NC(=O)CNC(=O)[C@H](CCCCN)NC(=O)[C@@H]1CCCN1C(=O)[C@H](CC(C)C)NC(=O)[C@H](CC(N)=O)NC(=O)[C@H](CC(C)C)NC(=O)[C@H](CC(=O)O)NC(=O)[C@H](C)NC(=O)[C@H](Cc1ccc(OP(=O)(O)O)cc1)NC(=O)[C@@H](NC(=O)[C@@H](NC(=O)[C@@H](N)CC(=O)O)[C@@H](C)CC)[C@@H](C)O)[C@@H](C)O)C(=O)N[C@@H](CCC(N)=O)C(=O)N[C@H](C(=O)N[C@@H](CO)C(N)=O)[C@@H](C)O
In the case of B1, in experiment [3], the activation of phosphatase activity on [^32 P]RCM-lysozyme by the phosphotyrosine peptide (fold higher than wildtype SHP-2) came to 5.
